The values below are quoted from earlier work in patent US20190390191A1, “CONSTRUCTING ENZYME-BASED SENSORS” (PharmaSeq, Inc., priority 2018, published 2019).

The conditions of series [1]: for T. aquaticus; Yeh et al.
For series [2] the following is noted: E. coli enzyme; Boulanger et al.

As to Alkaline phosphatase, the Km in series [1] is 840 µM. On to “Alkaline phosphatase of E. coli: zinc-containing dimeric enzyme encoded by the phoA gene of E. coli”, for which the Tm in series [2] is 97 °C.

What is called Km is the concentration of substrate that gives half-maximal velocity.
